What was measured:
[1] = biological target: tubby-N (N-terminus of mouse tubby, 1M-242P), GST-free (mouse) (UniProt P50586); test: clonal phage on immobilized tubby-N, plaque assay
[2] = biological target: FLAG-tubby-F (full-length mouse tubby with N-terminal FLAG tag) (mouse) (UniProt P50586); test: clonal phage on immobilized FLAG-tubby-F, plaque assay
FLAG-tubby-F (full-length mouse tubby with N-terminal FLAG tag) (mouse), sequence (P50586 other isoform, or with tags, fused parts or gaps): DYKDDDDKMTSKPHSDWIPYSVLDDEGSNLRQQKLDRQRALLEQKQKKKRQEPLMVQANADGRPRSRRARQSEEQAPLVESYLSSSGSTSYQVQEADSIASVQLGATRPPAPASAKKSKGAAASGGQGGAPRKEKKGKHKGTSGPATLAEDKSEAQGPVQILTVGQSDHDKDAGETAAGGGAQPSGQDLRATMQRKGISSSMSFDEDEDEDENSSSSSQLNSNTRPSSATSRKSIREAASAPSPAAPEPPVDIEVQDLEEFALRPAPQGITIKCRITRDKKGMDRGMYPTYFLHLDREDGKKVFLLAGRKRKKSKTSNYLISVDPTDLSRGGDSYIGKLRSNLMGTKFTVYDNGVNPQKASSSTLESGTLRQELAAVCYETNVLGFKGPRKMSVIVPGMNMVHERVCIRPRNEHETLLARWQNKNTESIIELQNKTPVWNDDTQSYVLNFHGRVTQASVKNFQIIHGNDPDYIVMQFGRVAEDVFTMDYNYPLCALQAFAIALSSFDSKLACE

tubby-N (N-terminus of mouse tubby, 1M-242P), GST-free (mouse), sequence (P50586 1-242): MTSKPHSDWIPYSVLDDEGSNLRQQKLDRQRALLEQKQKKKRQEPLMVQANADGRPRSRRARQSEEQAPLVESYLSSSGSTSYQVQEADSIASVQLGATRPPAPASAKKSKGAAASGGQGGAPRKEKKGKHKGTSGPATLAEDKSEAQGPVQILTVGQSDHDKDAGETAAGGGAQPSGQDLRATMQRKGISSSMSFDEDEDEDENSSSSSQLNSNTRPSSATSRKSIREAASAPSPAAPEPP

B1: Regulated endocrine-specific protein 18 (Resp18) 68V-134K, phage clone (protein, mouse, UniProt P47939 68-134, looked up)
chain: VPEGMFWADDIAYELMTKKVEHLSRLHPQYPCRKDMKAVSPTANAGVRSKQEEKLQLLSPQKSPTVK
Which Binding to tubby-N (binding specificity of clonal phage vs. control phage) [1] does the source give for B1 here?
Its Binding to tubby-N (binding specificity of clonal phage vs. control phage) is 10.3 X (fold).

And the Binding to tubby-F (binding specificity to FLAG-tubby-F vs. to GFP-FLAG) [2]?
Its Binding to tubby-F (binding specificity to FLAG-tubby-F vs. to GFP-FLAG) is 4.8 X (fold).
